In the data set the test system is Escherichia coli TOP10. Put plainly: shrunken log2 fold change of peptide-encoding DNA abundance (4.5 h post-induction vs induction); higher = less antimicrobial activity (less host growth inhibition). The conditions noted are these: time post-induction: 4.5 h; library: site-saturation at positions 5, 18, 19, 20.
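Further: peptides expressed intracellularly from a pBAD plasmid library in pooled LB shake-flask culture, induced with 0.3% L-arabinose, DNA abundance read by NGS, three biological replicates, DESeq2 with apeglm shrinkage.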

Regarding RRIRHRPPRLPRPRPRPVEGPRP, the “shrunken log2 fold change” value came out at 0.105.

In the case of RRIRTRPPRLPRPRPRPKEDPRP, the “shrunken log2 fold change” value is 0.262.

Regarding RRIRARPPRLPRPRPRPRQMPRP, the “shrunken log2 fold change” value came out at 1.2.

RRIRNRPPRLPRPRPRPGIIPRP: the “shrunken log2 fold change” value was -0.00401.

Turning to RRIRIRPPRLPRPRPRPNWAPRP, the “shrunken log2 fold change” value was 0.0373.

Regarding RRIRSRPPRLPRPRPRPDRCPRP, the “shrunken log2 fold change” value is -0.115.

Take RRIRDRPPRLPRPRPRPVMQPRP: the “shrunken log2 fold change” value turned out to be 0.023.

Turning to RRIRLRPPRLPRPRPRPYFQPRP, the “shrunken log2 fold change” value was -0.269.

As to RRIRTRPPRLPRPRPRPPQCPRP, the “shrunken log2 fold change” value stood at 0.0145.

For the sequence RRIRTRPPRLPRPRPRPPAEPRP, the “shrunken log2 fold change” value worked out at 0.378.

Consider RRIRTRPPRLPRPRPRPWCSPRP, for which the “shrunken log2 fold change” value is -0.799.

For the sequence RRIRMRPPRLPRPRPRPKLLPRP, the “shrunken log2 fold change” value was 0.0392.

In the case of RRIRNRPPRLPRPRPRPQTIPRP, the “shrunken log2 fold change” value is -0.194.

Take RRIRMRPPRLPRPRPRPWTMPRP: the “shrunken log2 fold change” value amounted to 0.0064.

For RRIRARPPRLPRPRPRPKREPRP, the “shrunken log2 fold change” value was 0.422.

With RRIRPRPPRLPRPRPRPLDFPRP, the “shrunken log2 fold change” value is -0.116.

RRIRFRPPRLPRPRPRPAYDPRP: the “shrunken log2 fold change” value was -0.293.

Consider RRIRIRPPRLPRPRPRPARPPRP, for which the “shrunken log2 fold change” value turned out to be 0.474.

Regarding RRIRSRPPRLPRPRPRPGHSPRP, the “shrunken log2 fold change” value amounted to 0.0297.

With RRIRTRPPRLPRPRPRPKGYPRP, the “shrunken log2 fold change” value was -0.0992.

On to RRIRTRPPRLPRPRPRPPRHPRP, for which the “shrunken log2 fold change” value amounted to 0.152.

In the case of RRIRERPPRLPRPRPRPSPLPRP, the “shrunken log2 fold change” value was -0.0982.

Take RRIRHRPPRLPRPRPRPEFKPRP: the “shrunken log2 fold change” value amounted to 0.0348.

Consider RRIRCRPPRLPRPRPRPATQPRP, for which the “shrunken log2 fold change” value came out at 0.262.

RRIRTRPPRLPRPRPRPSKLPRP: the “shrunken log2 fold change” value is -0.473.

In the case of RRIRRRPPRLPRPRPRPMQDPRP, the “shrunken log2 fold change” value was 0.452.

Turning to RRIRTRPPRLPRPRPRPWQDPRP, the “shrunken log2 fold change” value is -0.326.

As to RRIRWRPPRLPRPRPRPDAPPRP, the “shrunken log2 fold change” value amounted to 0.558.

For RRIRFRPPRLPRPRPRPPLHPRP, the “shrunken log2 fold change” value was 0.198.

With RRIRSRPPRLPRPRPRPMYPPRP, the “shrunken log2 fold change” value is -0.124.

For RRIRTRPPRLPRPRPRPTKTPRP, the “shrunken log2 fold change” value came to 0.0558.

For RRIRIRPPRLPRPRPRPVQPPRP, the “shrunken log2 fold change” value is 0.204.

For the sequence RRIRQRPPRLPRPRPRPTMTPRP, the “shrunken log2 fold change” value was -0.0845.

Regarding RRIRHRPPRLPRPRPRPLWPPRP, the “shrunken log2 fold change” value was 0.27.

Consider RRIRTRPPRLPRPRPRPIFRPRP, for which the “shrunken log2 fold change” value is 0.00202.

With RRIRCRPPRLPRPRPRPHTNPRP, the “shrunken log2 fold change” value was -0.564.

Consider RRIRYRPPRLPRPRPRPGSRPRP, for which the “shrunken log2 fold change” value is -0.3.

As for RRIRGRPPRLPRPRPRPMIAPRP, the “shrunken log2 fold change” value is 0.915.

In the case of RRIRIRPPRLPRPRPRPHKRPRP, the “shrunken log2 fold change” value was -0.169.

As to RRIRNRPPRLPRPRPRPTQNPRP, the “shrunken log2 fold change” value was 0.332.

Regarding RRIRWRPPRLPRPRPRPAHAPRP, the “shrunken log2 fold change” value amounted to 0.191.

Regarding RRIRRRPPRLPRPRPRPCDNPRP, the “shrunken log2 fold change” value worked out at 0.0406.

On to RRIRWRPPRLPRPRPRPGDRPRP, for which the “shrunken log2 fold change” value is 0.468.

For the sequence RRIRERPPRLPRPRPRPNHMPRP, the “shrunken log2 fold change” value is -0.31.

As to RRIRCRPPRLPRPRPRPDYCPRP, the “shrunken log2 fold change” value was determined as 0.25.

Regarding RRIRCRPPRLPRPRPRPIANPRP, the “shrunken log2 fold change” value was found to be 0.0422.

In the case of RRIRSRPPRLPRPRPRPWQYPRP, the “shrunken log2 fold change” value is 0.0433.

Consider RRIRDRPPRLPRPRPRPKKWPRP, for which the “shrunken log2 fold change” value was -0.0255.

As to RRIRERPPRLPRPRPRPVAWPRP, the “shrunken log2 fold change” value came to 0.00482.

With RRIRKRPPRLPRPRPRPDTHPRP, the “shrunken log2 fold change” value is 0.234.

Take RRIRERPPRLPRPRPRPSATPRP: the “shrunken log2 fold change” value worked out at 0.0731.

As to RRIRYRPPRLPRPRPRPYLHPRP, the “shrunken log2 fold change” value was -0.0309.

On to RRIRCRPPRLPRPRPRPPNCPRP, for which the “shrunken log2 fold change” value came to 0.0348.

On to RRIRARPPRLPRPRPRPKQCPRP, for which the “shrunken log2 fold change” value was determined as 0.123.

For RRIRLRPPRLPRPRPRPPQDPRP, the “shrunken log2 fold change” value came out at 0.348.

Turning to RRIRRRPPRLPRPRPRPTRQPRP, the “shrunken log2 fold change” value worked out at 1.33.

Regarding RRIRGRPPRLPRPRPRPWDAPRP, the “shrunken log2 fold change” value is 0.142.

RRIRQRPPRLPRPRPRPKGLPRP: the “shrunken log2 fold change” value is 0.0353.

On to RRIRPRPPRLPRPRPRPTAAPRP, for which the “shrunken log2 fold change” value worked out at 0.227.

On to RRIRHRPPRLPRPRPRPYFGPRP, for which the “shrunken log2 fold change” value was -0.131.

As to RRIRNRPPRLPRPRPRPQLWPRP, the “shrunken log2 fold change” value is -0.252.

Turning to RRIRERPPRLPRPRPRPAAMPRP, the “shrunken log2 fold change” value is 0.102.

In the case of RRIRCRPPRLPRPRPRPCFCPRP, the “shrunken log2 fold change” value is -0.367.

For the sequence RRIRFRPPRLPRPRPRPWKAPRP, the “shrunken log2 fold change” value was determined as 0.0062.

Regarding RRIRQRPPRLPRPRPRPYCCPRP, the “shrunken log2 fold change” value was -0.781.

RRIRVRPPRLPRPRPRPQVSPRP: the “shrunken log2 fold change” value was 0.0417.

Consider RRIRHRPPRLPRPRPRPEYTPRP, for which the “shrunken log2 fold change” value was -0.0512.

In the case of RRIRIRPPRLPRPRPRPWMAPRP, the “shrunken log2 fold change” value is -0.547.

As for RRIRDRPPRLPRPRPRPSGPPRP, the “shrunken log2 fold change” value is -0.0549.

Consider RRIRGRPPRLPRPRPRPRTGPRP, for which the “shrunken log2 fold change” value came to 0.617.

With RRIRVRPPRLPRPRPRPHAIPRP, the “shrunken log2 fold change” value is -0.0728.

As for RRIRPRPPRLPRPRPRPTMDPRP, the “shrunken log2 fold change” value is -0.125.

Regarding RRIRQRPPRLPRPRPRPDVWPRP, the “shrunken log2 fold change” value was -0.0325.

RRIRMRPPRLPRPRPRPLANPRP: the “shrunken log2 fold change” value amounted to 0.235.

On to RRIRGRPPRLPRPRPRPARCPRP, for which the “shrunken log2 fold change” value was found to be 0.749.

On to RRIRTRPPRLPRPRPRPTKIPRP, for which the “shrunken log2 fold change” value is -0.169.

RRIRCRPPRLPRPRPRPYKMPRP: the “shrunken log2 fold change” value was -1.66.

As to RRIRHRPPRLPRPRPRPEFMPRP, the “shrunken log2 fold change” value came to 0.0682.

Take RRIRNRPPRLPRPRPRPQRCPRP: the “shrunken log2 fold change” value came out at 0.0227.

For RRIRNRPPRLPRPRPRPAVTPRP, the “shrunken log2 fold change” value was 0.0989.

With RRIRGRPPRLPRPRPRPQAEPRP, the “shrunken log2 fold change” value was found to be 1.08.

As to RRIRPRPPRLPRPRPRPMSWPRP, the “shrunken log2 fold change” value is 0.245.

With RRIRHRPPRLPRPRPRPMICPRP, the “shrunken log2 fold change” value was -0.163.

As for RRIRRRPPRLPRPRPRPMSAPRP, the “shrunken log2 fold change” value came to 0.128.

For the sequence RRIRDRPPRLPRPRPRPYAKPRP, the “shrunken log2 fold change” value was determined as 0.019.

With RRIRARPPRLPRPRPRPNDIPRP, the “shrunken log2 fold change” value is -0.448.

In the case of RRIRMRPPRLPRPRPRPCSKPRP, the “shrunken log2 fold change” value was -0.00101.

Turning to RRIRCRPPRLPRPRPRPSGGPRP, the “shrunken log2 fold change” value was -0.0862.

For the sequence RRIRMRPPRLPRPRPRPHYWPRP, the “shrunken log2 fold change” value was -0.121.

RRIRMRPPRLPRPRPRPLPWPRP: the “shrunken log2 fold change” value was 1.74.

Regarding RRIRERPPRLPRPRPRPQKMPRP, the “shrunken log2 fold change” value is -0.28.

As for RRIRHRPPRLPRPRPRPDHKPRP, the “shrunken log2 fold change” value was -0.274.

As for RRIRTRPPRLPRPRPRPQCTPRP, the “shrunken log2 fold change” value is -0.175.

RRIRGRPPRLPRPRPRPHDWPRP: the “shrunken log2 fold change” value was 0.46.

RRIRSRPPRLPRPRPRPIWMPRP: the “shrunken log2 fold change” value was -0.000641.

Regarding RRIRPRPPRLPRPRPRPIPIPRP, the “shrunken log2 fold change” value is -0.065.

Turning to RRIRVRPPRLPRPRPRPSSRPRP, the “shrunken log2 fold change” value is -0.231.

Regarding RRIRERPPRLPRPRPRPKALPRP, the “shrunken log2 fold change” value is -0.113.

As for RRIRLRPPRLPRPRPRPGYSPRP, the “shrunken log2 fold change” value was -0.314.

For RRIRDRPPRLPRPRPRPCLIPRP, the “shrunken log2 fold change” value worked out at 0.0225.

Consider RRIRIRPPRLPRPRPRPGINPRP, for which the “shrunken log2 fold change” value was -0.603.

With RRIRPRPPRLPRPRPRPPMNPRP, the “shrunken log2 fold change” value is -0.036.

In the case of RRIRKRPPRLPRPRPRPGAPPRP, the “shrunken log2 fold change” value turned out to be 0.85.

As to RRIRGRPPRLPRPRPRPNCIPRP, the “shrunken log2 fold change” value turned out to be 0.247.

For RRIRNRPPRLPRPRPRPYHDPRP, the “shrunken log2 fold change” value was -0.165.

Regarding RRIRLRPPRLPRPRPRPEEIPRP, the “shrunken log2 fold change” value is -0.012.

On to RRIRDRPPRLPRPRPRPCPWPRP, for which the “shrunken log2 fold change” value was found to be 0.0761.

In the case of RRIRCRPPRLPRPRPRPFKPPRP, the “shrunken log2 fold change” value is -0.302.

As to RRIRWRPPRLPRPRPRPPDVPRP, the “shrunken log2 fold change” value was 0.235.

For the sequence RRIRARPPRLPRPRPRPVNLPRP, the “shrunken log2 fold change” value is 0.0654.

With RRIRCRPPRLPRPRPRPQKHPRP, the “shrunken log2 fold change” value is -0.0816.

Take RRIRMRPPRLPRPRPRPRWFPRP: the “shrunken log2 fold change” value was determined as 0.717.

As for RRIRSRPPRLPRPRPRPYHDPRP, the “shrunken log2 fold change” value is -0.174.

Consider RRIRYRPPRLPRPRPRPVKLPRP, for which the “shrunken log2 fold change” value stood at 0.0698.

On to RRIRKRPPRLPRPRPRPSDSPRP, for which the “shrunken log2 fold change” value is -0.132.

For the sequence RRIRARPPRLPRPRPRPKQYPRP, the “shrunken log2 fold change” value is -0.0335.

Take RRIRNRPPRLPRPRPRPKSKPRP: the “shrunken log2 fold change” value is 0.0844.

Regarding RRIRRRPPRLPRPRPRPSVMPRP, the “shrunken log2 fold change” value turned out to be 0.157.

With RRIRKRPPRLPRPRPRPFKIPRP, the “shrunken log2 fold change” value worked out at 0.00571.

For the sequence RRIRDRPPRLPRPRPRPAWKPRP, the “shrunken log2 fold change” value was 0.0693.

For the sequence RRIRFRPPRLPRPRPRPLSTPRP, the “shrunken log2 fold change” value was -0.47.

As to RRIRQRPPRLPRPRPRPCFEPRP, the “shrunken log2 fold change” value was 0.0423.

As for RRIRERPPRLPRPRPRPFWHPRP, the “shrunken log2 fold change” value is -0.0333.

As for RRIRNRPPRLPRPRPRPVAHPRP, the “shrunken log2 fold change” value was -0.0475.

For the sequence RRIRLRPPRLPRPRPRPRYMPRP, the “shrunken log2 fold change” value was -0.982.

Values taken from the supplement of paper PMC9112550, “Optimization of the antimicrobial peptide Bac7 by deep mutational scanning” (BMC Biology, 2022).
